These results are taken from paper PMC12754688 (Gut Microbes, 2025).

Common to all, as to details: both partners purified
For experiment [1], the target named is T1, cholera toxin B-subunit pentamer (Vibrio cholerae; ctxB genotype of …, UniProt P01556).
T1 construct: source: bought: Sigma-Aldrich (C9903)
Nature of the experiment: BLI. Background: BLI is a label-free optical method that tracks binding on a fibre tip over time.

Experiment [2] deals with T2, cholera toxin holotoxin (AB5) (Vibrio cholerae; strain/ctxB genotype …, UniProt P01555;P01556).
T2 construct: source: Vibrio natriegens, from culture medium, purified (D-galactose column, SEC); copies: 1 + 5
Nature of the experiment: SEC. For orientation: SEC sorts molecules by how far they enter the pores of the column.

In experiment [3] the target is T3, heat-labile enterotoxin B-subunit pentamer (LTB-6HIS-3FLAG) (Escherichia coli (ETEC), human-type …, UniProt P0CK94, biotin (NHS-PEG4-Biotin) in the DELFIA experiments only). Nature of the experiment: BLI; Octet RED96; […] (76 nM) […] (120–0.470 nM); […].
Experiment [4] concerns the target T3, heat-labile enterotoxin B-subunit …. Nature of the experiment: SPR; Biacore 8K+; […] (1–300 nM); single-cycle kinetics, HBS-EP+, 30 µl min^−1, 25 °C; global 1:1 model. For orientation: Surface plasmon resonance follows binding to a sensor surface in real time, without labels.
Experiment [5] has the same target. Nature of the experiment: SPR; Biacore 8K+; […] (1–300 nM); single-cycle kinetics, HBS-EP+, 30 µl min^−1, 25 °C; global 1:1 model; […].
The target of experiment [6] is T4, LTB pentamer (receptor-binding B-subunit of heat-labile enterotoxin), LTB-6HIS-3FLAG (Escherichia coli (ETEC), human-type …, UniProt P0CK94).
T4 construct: source: E. coli BL21 (DE3), periplasmic extract, purified (IMAC)
Nature of the experiment: BLI; Octet RED96; […] (76 nM) […] (120-0.470 nM); global 1:1 ([…]) fit; […].

For experiment [7], the target named is T5, CTXB pentamer (receptor-binding B-subunit of cholera toxin) (Vibrio cholerae; ctxB genotype of …, UniProt P01556).
T5 construct: source: bought: Sigma-Aldrich (C9903)
Described as above.

The target in experiment [8] is T4, LTB pentamer (receptor-binding …). Nature of the experiment: SPR; Biacore 8K+; […] (1 µg/ml) […] (1-300 nM), single-cycle kinetics, HBS-EP+, 30 µl/min, 25 °C; global 1:1 fit; […].
For experiment [9], the target named is T5, CTXB pentamer (receptor-binding …). The description is as above.
Experiment [10] has as its target T4, LTB pentamer (receptor-binding …). Nature of the experiment: SPR; Biacore 8K+; […] (5 µg/ml) […] (1-300 nM), single-cycle kinetics, HBS-EP+, 30 µl/min, 25 °C; global 1:1 fit; […].
The target of experiment [11] is T5, CTXB pentamer (receptor-binding …). Described as above.

T2 sequence (P01556 22-124, looked up, chain 1 of 2): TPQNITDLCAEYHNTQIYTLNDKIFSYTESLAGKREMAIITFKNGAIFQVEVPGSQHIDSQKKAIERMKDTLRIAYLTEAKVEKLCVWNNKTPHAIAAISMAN
T2 sequence (P01555 whole entry, looked up, chain 2 of 2): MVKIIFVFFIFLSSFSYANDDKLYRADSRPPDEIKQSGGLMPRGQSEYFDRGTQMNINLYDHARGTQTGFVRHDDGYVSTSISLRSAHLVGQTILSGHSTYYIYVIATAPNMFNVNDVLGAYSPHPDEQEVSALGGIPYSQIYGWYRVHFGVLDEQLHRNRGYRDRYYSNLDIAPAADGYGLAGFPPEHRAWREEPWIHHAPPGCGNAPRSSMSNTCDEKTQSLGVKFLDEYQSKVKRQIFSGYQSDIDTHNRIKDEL

B1: monovalent VHH BL2.1 (VHH)
VHH: QVQLQQSGGGLVQAGGSLRLSCAASGFTFDDYAIGWFRQAPGKEREGISSIVGSDNYTWYTDSVKGRFTISSDNTRSTVYLQMNSLKPEDTAVYYCAADSYSDYVSLNPETFGSWGQGTQVTVSS
notes: also called LT109; non-N-glycosylated BL2.1; source: E. coli BL21 (DE3), periplasmic extract, purified (IMAC, cation exchange)
For orientation: Kd means the equilibrium constant for the complex coming apart. Read a low Kd as a tighter complex. In the case of B1, the Kd in experiment [1] was 0.33 nM; in [3], less than 0.001 nM; in experiment [4] it was 0.26 nM; in experiment [5], 0.003 nM. The binding result in [2] is “binds”.

B2: BL2.1 (monovalent VHH) (VHH)
VHH: B1 VHH
notes: also called LT109; VHH BL2.1; source: E. coli BL21 (DE3), periplasmic extract, purified (IMAC, cation exchange)
The koff is the first-order rate constant of dissociation. A high value points to a short-lived complex. In general, kon refers to the second-order rate constant of association. Read a low kon as slower complex formation. B2: the koff in [6] is less than 1e-07 s⁻¹; in experiment [7], 3.53e-05 s⁻¹; in [8] it was 2.48e-05 s⁻¹; in [9] it was 0.000212 s⁻¹; in experiment [10] it was 0.000182 s⁻¹; in experiment [11] it was 0.00179 s⁻¹. Also, the kon worked out at 69700 M⁻¹ s⁻¹ in experiment [6]; 108000 M⁻¹ s⁻¹ in experiment [7]; 7.93e+06 M⁻¹ s⁻¹ in experiment [8]; 557000 M⁻¹ s⁻¹ in experiment [9]; 696000 M⁻¹ s⁻¹ in experiment [10]; 218000 M⁻¹ s⁻¹ in experiment [11].
